The values below are quoted from earlier work in article PMC8989918.

What is called Kd is a measure of binding affinity in units of concentration.

Data set [1] concerns the target PTPN12 (PTP-PEST) (Homo sapiens) (UniProt Q05209).
For data set [2], the target named is PTPN22 SH3-binding peptide (Homo sapiens) (UniProt Q9Y2R2).
Sequence of PTPN22 SH3-binding peptide (Homo sapiens) (Q9Y2R2 whole entry): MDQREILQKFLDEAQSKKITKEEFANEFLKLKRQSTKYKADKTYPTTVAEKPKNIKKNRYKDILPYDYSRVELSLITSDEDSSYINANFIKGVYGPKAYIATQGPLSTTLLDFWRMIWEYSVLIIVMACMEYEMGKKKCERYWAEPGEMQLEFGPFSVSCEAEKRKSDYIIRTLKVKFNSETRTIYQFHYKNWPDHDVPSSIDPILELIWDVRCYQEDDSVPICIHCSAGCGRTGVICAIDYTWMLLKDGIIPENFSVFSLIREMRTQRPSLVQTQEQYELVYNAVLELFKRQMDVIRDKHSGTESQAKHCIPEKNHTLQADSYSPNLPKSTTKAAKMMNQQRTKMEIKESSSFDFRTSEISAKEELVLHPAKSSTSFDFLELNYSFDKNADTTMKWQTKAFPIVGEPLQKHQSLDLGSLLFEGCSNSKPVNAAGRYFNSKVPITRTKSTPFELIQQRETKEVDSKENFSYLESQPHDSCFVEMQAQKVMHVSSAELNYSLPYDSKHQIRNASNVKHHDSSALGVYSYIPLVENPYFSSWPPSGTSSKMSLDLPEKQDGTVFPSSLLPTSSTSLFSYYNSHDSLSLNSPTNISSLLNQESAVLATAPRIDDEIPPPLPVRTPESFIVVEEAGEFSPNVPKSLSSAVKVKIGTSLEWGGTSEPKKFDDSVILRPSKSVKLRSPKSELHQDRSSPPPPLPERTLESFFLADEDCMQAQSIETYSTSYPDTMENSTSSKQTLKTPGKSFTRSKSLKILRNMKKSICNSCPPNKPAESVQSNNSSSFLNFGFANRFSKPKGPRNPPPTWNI

Sequence of Csk SH3 (P41240 6-73): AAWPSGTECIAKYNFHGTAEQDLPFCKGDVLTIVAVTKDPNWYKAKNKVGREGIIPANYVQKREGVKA
Sequence of PTPN12 (PTP-PEST) (Homo sapiens) (Q05209 whole entry): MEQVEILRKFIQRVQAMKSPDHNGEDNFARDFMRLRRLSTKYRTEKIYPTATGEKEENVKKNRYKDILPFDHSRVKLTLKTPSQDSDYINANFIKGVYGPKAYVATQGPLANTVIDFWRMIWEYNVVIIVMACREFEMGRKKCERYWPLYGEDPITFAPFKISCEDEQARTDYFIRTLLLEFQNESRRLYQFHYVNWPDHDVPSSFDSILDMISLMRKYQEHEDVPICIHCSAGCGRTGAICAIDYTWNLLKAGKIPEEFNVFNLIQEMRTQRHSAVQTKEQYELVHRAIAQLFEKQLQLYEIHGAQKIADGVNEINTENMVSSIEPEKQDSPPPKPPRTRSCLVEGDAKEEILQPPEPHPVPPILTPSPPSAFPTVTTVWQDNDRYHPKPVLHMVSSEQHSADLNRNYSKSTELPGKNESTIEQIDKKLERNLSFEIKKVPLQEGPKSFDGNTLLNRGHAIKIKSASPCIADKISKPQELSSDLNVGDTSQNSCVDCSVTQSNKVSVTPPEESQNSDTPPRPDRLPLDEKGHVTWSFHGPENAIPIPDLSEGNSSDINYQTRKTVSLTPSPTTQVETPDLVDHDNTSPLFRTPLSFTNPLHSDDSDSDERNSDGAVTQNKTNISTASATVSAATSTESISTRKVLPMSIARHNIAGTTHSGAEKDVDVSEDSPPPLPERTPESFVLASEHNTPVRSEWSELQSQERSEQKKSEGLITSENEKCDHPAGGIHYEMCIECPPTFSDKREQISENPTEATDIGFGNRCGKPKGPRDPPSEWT

As for Csk SH3 (from UniProt P41240), the Kd was 8 µM in data set [1] and 0.8 µM in data set [2].
